Paper PMC8191301 (The Journal of Biological Chemistry, 2021)
No end group written: not given here.

B1: p21μ–F150H (peptide)
peptide: KRRQTSMTDHYHSKR-NH2
B2: p21μ–TS145/146KR (peptide)
peptide: KRRQKRMTDFYHSKR-NH2
B3: p21μ–TS145/146RK (peptide)
peptide: KRRQRKMTDFYHSKR-NH2
B4: p21μ–Q144N (peptide)
peptide: KRRNTSMTDFYHSKR-NH2
B5: p21μ–T145R (peptide)
peptide: KRRQRSMTDFYHSKR-NH2
B6: p21μ–Q144D (peptide)
peptide: KRRDTSMTDFYHSKR-NH2
B7: p21μ–FY150/151YF (peptide)
peptide: KRRQTSMTDYFHSKR-NH2
B8: p21μ–TS145/146RR (peptide)
peptide: KRRQRRMTDFYHSKR-NH2
B9: p21μ–T148E (peptide)
peptide: KRRQTSMEDFYHSKR-NH2
B10: p21μ–T145K (peptide)
peptide: KRRQKSMTDFYHSKR-NH2
B11: p21μ–TD148/149DE (peptide)
peptide: KRRQTSMDEFYHSKR-NH2
B12: p21μ–TD148/149EE (peptide)
peptide: KRRQTSMEEFYHSKR-NH2
B13: p21μ–M147I (peptide)
peptide: KRRQTSITDFYHSKR-NH2
B14: p21μ–RD2 (designed binder)
peptide: KRRQTRITEYFHSKR-NH2
B15: p21μ–Pogo (peptide)
peptide: KRRQKKITDYFHSKR-NH2
B16: p21μ–pol η (peptide)
peptide: KRRMQTLESFFHSKR-NH2
B17: p21μ–Cdt1 (peptide)
peptide: KRRQRRVTDFFHSKR-NH2

Molecular target: T1, human Proliferating Cell Nuclear Antigen (hPCNA) (human, UniProt P12004)
T1 sequence (P12004 1-259): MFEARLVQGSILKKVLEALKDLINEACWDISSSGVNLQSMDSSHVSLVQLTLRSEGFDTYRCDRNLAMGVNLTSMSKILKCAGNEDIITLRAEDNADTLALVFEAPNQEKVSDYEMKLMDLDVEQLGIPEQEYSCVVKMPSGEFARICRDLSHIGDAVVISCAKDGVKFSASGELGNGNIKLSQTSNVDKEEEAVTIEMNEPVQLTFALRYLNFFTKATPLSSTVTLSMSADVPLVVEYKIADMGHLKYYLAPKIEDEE
Experiment: SPR
Settings: not given
B1 gave a Kd of 159 nM. For B2, the Kd was 37 nM. In the case of B3, the Kd is reported as 17.3 nM. B4 showed a Kd of 772 nM. In the case of B5, the “fold decrease in affinity relative to p21μ” value is reported as 7 fold. B6 gave a Kd of 714 nM. For B7, the Kd was 2.18 nM. B8 gave a Kd of 1.83 nM. With B9 the “fold lower affinity than p21μ” value was ~6 fold. For B10, the “fold decrease in affinity relative to p21μ” value was 8 fold. For B11, the “fold lower affinity than p21μ” value was 28 fold. For B12, the “fold lower affinity than p21μ” value was 4 fold. Molecule B13 has a Kd of 11.1 nM. Work on B14 yielded a Kd of 1.12 nM.

Molecular target: hPCNA (Homo sapiens, UniProt P12004)
Sequence (P12004 whole entry): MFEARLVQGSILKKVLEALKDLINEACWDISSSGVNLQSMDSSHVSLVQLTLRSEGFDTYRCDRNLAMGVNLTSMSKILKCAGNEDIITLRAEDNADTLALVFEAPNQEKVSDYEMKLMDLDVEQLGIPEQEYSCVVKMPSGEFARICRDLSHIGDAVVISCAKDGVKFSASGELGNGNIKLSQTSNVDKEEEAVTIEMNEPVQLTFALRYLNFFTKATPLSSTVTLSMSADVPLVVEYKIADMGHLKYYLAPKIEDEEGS
Experiment: not given
Settings: isothermal calorimetry; ref [22]; cited from earlier work
For “Tyr151Phe^P8–modified p21 peptide: literature p21 (residues 139–160) peptide with Tyr151Phe modification (GRKRRQTSMTDFFHSKRRLIFS; UniProt P38936 139-160, looked up, variant Y151F) [reference compound]”, the “fold decrease in binding affinity compared with the analogous native peptide (residues 139–160)” value is listed as 3 fold.

Same assay, conditions: p21 protein binding hPCNA; ref [13], [14], [15]; cited from earlier work
For “p21: cell-cycle regulator protein, highest affinity hPCNA-interacting protein known”, the Kd is given as 2.5 to 90 nM.

Molecular target: T1, human Proliferating Cell Nuclear …
Experiment: SPR
Settings: not given
Remark: another data set of the same source
Molecule B15 has a Kd of 8.82 nM. With B16 the Kd was 2540 nM. In the case of B17, the Kd is reported as 8.76 nM.
